Data as given in US20230303711A1.

Tests used:
[1] = biological target: Fc-tagged human CD47-ECD protein (CD47-Fc) (human); test: ELISA on coated human CD47-Fc; row printed as Affinity (µg/mL)
[2] = biological target: His-tagged human CD47-ECD protein (CD47-His) (human) (UniProt Q08722); test: competitive ELISA on coated CD47-His (2 µg/mL); blocked ligand SIRPα-Fc-Bio (0.1 µg/mL), HRP-streptavidin, OD450
His-tagged human CD47-ECD protein (CD47-His) (human), sequence (Q08722 other isoform, or with tags, fused parts or gaps): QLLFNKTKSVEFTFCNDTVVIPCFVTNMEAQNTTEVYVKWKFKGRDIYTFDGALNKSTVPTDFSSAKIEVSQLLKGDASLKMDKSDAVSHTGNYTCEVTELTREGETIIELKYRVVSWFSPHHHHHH

Fc-tagged human CD47-ECD protein (CD47-Fc) (human), sequence (chain, as listed by the source limits assumed): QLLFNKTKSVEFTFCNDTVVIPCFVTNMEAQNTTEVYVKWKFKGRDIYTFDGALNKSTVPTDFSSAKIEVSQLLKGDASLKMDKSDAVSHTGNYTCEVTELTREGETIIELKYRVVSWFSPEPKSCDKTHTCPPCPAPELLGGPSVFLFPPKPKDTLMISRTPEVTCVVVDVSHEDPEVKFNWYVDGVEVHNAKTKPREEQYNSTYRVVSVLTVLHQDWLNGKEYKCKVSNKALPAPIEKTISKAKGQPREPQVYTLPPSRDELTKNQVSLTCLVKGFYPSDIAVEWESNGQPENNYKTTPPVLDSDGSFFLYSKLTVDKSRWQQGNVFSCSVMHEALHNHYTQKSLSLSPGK

EC50 [1]	parameter C of the printed 4-parameter fit (OD does not fall, A 1.192, D 1.394; not an IC50) [2]	parameter C of the printed 4-parameter fit (OD does not fall, A 1.343, D 8.036; not an IC50) [2]	parameter C of the printed 4-parameter fit (OD only falls from A 1.633 to D 1.446; not an IC50) [2]	Substance
0.092 µg/mL	–	–	–	Antibody Hu5F9-G4
–	5.76 µg/mL	13400 µg/mL	1.95 µg/mL	IgG (antibody)
